Data from patent US20210047398A1, “ASPROSIN, A FAST-INDUCED GLUCOGENIC PROTEIN HORMONE” (Baylor College of Medicine, priority 2016, published 2021).

What was measured:
AgRP neurons = test: Whole-cell patch clamp recordings on AgRP neurons; assay type: cell-based, mice
Protocol: Electrophysiology—Whole-cell patch clamp recordings were performed on identified AgRP neurons or POMC neurons in the brain slices containing the arcuate nucleus of the hypothalamus (ARH). In particular, to identify AgRP neurons, the inventors crossed Rosa26-tdTOMATO allele onto the regular AgRP-Cre mice (Tong et al., 2008) to generate AgRP-Cre/Rosa26-tdTOMATO mice, which express TOMATO selectively in AgRP/NPY neurons. In some studies, the inventors crossed NPY-GFP mice (Pinto et al., 2004) with NPS mice to generate NPY-GFP mice with or without the NPS mutation, and GFP-labelled neurons in the arcuate nucleus were recorded. In order to record POMC neurons, the inventors crossed Rosa26-tdTOMATO allele onto the POMC-CreERT2 mice (Berglund et al., 2013) to generate POMC-CreERT2/Rosa26-tdTOMATO mice, which express TOMATO selectively in mature POMC neurons upon tamoxifen induction (0.2 mg/g, i.p. 6 weeks of age). In some studies, the inventors also crossed the AgRP-DTR allele onto POMC-GFP mice, and these mice received DT or saline injections (described above) to generate mice with or without AgRP neurons ablated.
Six to twelve-week old mice were deeply anesthetized with isoflurane and transcardially perfused with a modified ice-cold sucrose-based cutting solution (pH 7.3) containing 10 mM NaCl, 25 mM NaHCO3, 195 mM Sucrose, 5 mM Glucose, 2.5 mM KCl, 1.25 mM NaH2PO4, 2 mM Na-Pyruvate, 0.5 mM CaCl2, and 7 mM MgCl2, bubbled continuously with 95% O2 and 5% CO2 (Ren et al., 2012). The mice were then decapitated, and the entire brain was removed and immediately submerged in the cutting solution. Slices (250 μm) were cut with a Microm HM 650V vibratome (Thermo Scientific). Three brain slices containing the arcuate nucleus were obtained for each animal (Bregma −2.06 mm to −1.46 mm; Interaural 1.74 mm to 2.34 mm), and recordings were made at levels throughout this brain region. The slices were recovered for 1 h at 34° C. and then maintained at room temperature in artificial cerebrospinal fluid (aCSF, pH 7.3) containing 126 mM NaCl, 2.5 mM KCl, 2.4 mM CaCl2, 1.2 mM NaH2PO4, 1.2 mM MgCl2, 11.1 mM glucose, and 21.4 mM NaHCO3) saturated with 95% O2 and 5% CO2 before recording.
Slices were transferred to a recording chamber and allowed to equilibrate for at least 10 min before recording. The slices were superfused at 34° C. in oxygenated aCSF at a flow rate of 1.8-2 ml/min. GFP or TOMATO-labeled neurons in the ARH were visualized using epifluorescence and IR-DIC imaging on an upright microscope (Eclipse FN-1, Nikon) equipped with a moveable stage (MP-285, Sutter Instrument). Patch pipettes with resistances of 3-5 MΩ were filled with intracellular solution (pH 7.3) containing 128 mM K-Gluconate, 10 mM KCl, 10 mM HEPES, 0.1 mM EGTA, 2 mM MgCl2, 0.05 mM Na-GTP and 0.05 mM Mg-ATP. Recordings were made using a MultiClamp 700B amplifier (Axon Instrument), sampled using Digidata 1440A and analyzed offline with pClamp 10.3 software (Axon Instruments). Series resistance was monitored during the recording, and the values were generally <10 MΩ and were not compensated. The liquid junction potential was +12.5 mV, and was corrected after the experiment. Data were excluded if the series resistance increased dramatically during the experiment or without overshoot for action potential. Currents were amplified, filtered at 1 kHz, and digitized at 20 kHz. Current clamp was engaged to test neural firing frequency and resting membrane potential (RM) at the baseline and puff delivered recombinant Asprosin (500 ms at various concentrations indicated in the figures). For the asprosin antibody pre-incubation experiment, asprosin and anti-asprosin mAB or IgG were gently mixed at a 1:100 ratio, and then kept on ice for one hour before recording. After AgRP or POMC neuron response to asprosin alone was confirmed, the mixture of recombinant asprosin and anti-asprosin mAB or IgG was perfused to treat the AgRP or POMC neurons for 4 minutes. […]

[1] = Plasma His-tag sandwich ELISA after subcutaneous injection; assay type: in vivo, mice; details: 30 μg subcutaneous injection
Protocol: FIGS. 22A-22E: Asprosin traffics to the liver in vivo and binds the hepatocyte surface with high affinity in a saturable and competitive manner. (FIG. 22A) SPECT scans were performed 15 minutes after intravenous injection with 150 μCi I125-asprosin, boiled I125-asprosin, or free I125 in live, anesthetized mice previously injected with bismuth as a hepatic contrast agent. 3 representative images are shown in axial and coronal planes. (FIG. 22B) Liver asprosin accumulation was measured as liver photon intensity from mice in (FIG. 22A). (FIG. 22C) Tissue radioactivity (normalized to tissue weight) was measured using a γ-counter after sacrificing mice from (FIG. 22A), 45 minutes following injection (n=4 mice). (FIG. 22D) Sandwich ELISA was used to measure plasma His tag (recombinant asprosin contains an N-terminal His tag) in WT mice before injection and 15, 30, 60 and 120 minutes after injection with 30 μg recombinant asprosin. The time taken for peak signal to fall to half-maximal level is indicated by the arrow. […] Specific binding (shown in red) was calculated as the difference between the two curves. Data are represented as the mean±SEM.
Sandwich ELISA and Western Blot. […] Increasing amounts of recombinant asprosin (which contains an N-terminal His tag) were used to generate a standard curve for both assays. EDTA-plasma was used for plasma sandwich ELISAs and serum-free DMEM concentrated using Vivaspin protein concentrator spin columns by GE Life Sciences Inc. was used for media sandwich ELISAs.

B1: recombinant asprosin: 146 amino acid E. coli expressed fusion protein: 6 amino acid N-terminal His tag and 140 amino acid wild type asprosin (FBN1 2732-2871) (protein)
chain: HHHHHHSTNETDASNIEDQSETEANVSLASWDVEKTAIFAFNISHVSNKVRILELLPALTTLTNHNRYLIESGNEDGFFKINQKEGISYLHFTKKKPVAGTYSLQISSTPLYKKKELNQLEDKYDKDYLSGELGDNLKMKIQVLLH
Q: With B1 as the molecule, how does the “miniature excitatory post-synaptic current (mEPSC) of AgRP neurons” value (AgRP neurons) read?
A: increased the amplitude but not frequency

Q: And the “proportion of AgRP neurons asprosin-responsive” value (AgRP neurons)?
A: about 50%

Q: What about the “dose-dependency of AgRP neuron activation (firing frequency, membrane potential)” value (AgRP neurons; 0.01-100 nM, intact slices) of the same molecule?
A: dose-dependent activation

Q: And the “asprosin-mediated activation with synaptic inputs pharmacologically inhibited” value (AgRP neurons; TTX or TTX + AP-5 + CNQX + bicuculline)?
A: no decrease in asprosin-mediated activation

Q: What about the “EC50 for AgRP neuron activation” value (AgRP neurons; firing frequency and membrane potential) of the same molecule?
A: nanomolar to subnanomolar range

Q: And the “AgRP neuron firing frequency and membrane potential” value (AgRP neurons; recombinant asprosin puff)?
A: acutely induced their activation

Q: And the plasma half-life ([1]; His-tag ELISA)?
A: approximately 20 minutes

Q: What about the “peak level in plasma” value ([1]; mice) of the same molecule?
A: 50 nM

Q: And the “time of peak level after injection” value ([1]; mice)?
A: 20 min
